We go through 41 sequences from the nanobody polyreactivity screen of Harvey et al. (2022).

A short description of the series: yeast display, Sf9 membrane polyspecificity reagent, FACS + sequencing; frameworks hold sequencing errors. In outline: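 Galactose-induced (36–48 hours) yeast carrying a synthetic nanobody display library were exposed to 10% biotinylated, detergent-solubilized Sf9 membrane reagent at 4 °C for 1 hour. FACS followed streptavidin microbead enrichment, using low and high (top ~1%) gates for expression (anti-HA) and reagent binding (streptavidin). Colony PCR, MiSeq 2 × 250 sequencing and CDR-length filtering followed. Labels for polyreactivity reflect the gate of origin.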
With “QVQLVESGGGLVQAGGSLRLSCAASGIIFTKYVMGWYRQAPGKERELVAAINTDGGSTRYADSVKGRFTISRDNAKNTVYLQMNSLIPEDTAVYYCNTVWFYGAKYDYWGQGTQVTVSS”, the “polyreactivity (PSR sort gate)” value is recorded as “high polyreactivity”.

In the case of “QVQLVESGGGLVQAGGSLRLSCAASGIIFTPYNMGWYRQAPGKERELVAASTGSGGSTYYADSVKGRFTISRDNAKNTVDLQMNSLKPEDTAVYYCAAYKQYRFYRYDYWGQGTQVTVSS”, the “polyreactivity (PSR sort gate)” value is “high polyreactivity”.

Take “QVQLVESGGGLVQAGGSLRLSCAASGIIFTVYAMGWYRQAPGKERELVAAITSSGGRTYYADSVKGRFTISRDNAKNTVYLQMNSLKPEDTAVYYCAASIWLYRYYYWGQGTQVTVSS”: the “polyreactivity (PSR sort gate)” value was “high polyreactivity”.

Consider “QVQLVESGGGLVQAGGSLRLSCAASGIIFTVYVMGWYRQAPGKERELVAGITFSTSSTYYADSVKGRFTISRDNAKNTVYLQMNSLKPEDTAVYYCNKDALQTAFDYWGQGTQVTVSS”, for which the “polyreactivity (PSR sort gate)” value is “low polyreactivity”.

Consider “QVQLVESGGGLVQAGGSLRLSCAASGIIFTWYAMGWYRQAPGKERELVAAISGSGDITYYADSVKGRFTSSRDNAKNTVYLQMNSLKPEDTAVYYCAADPWTYWEDYDYWGQGTQVTVSS”, for which the “polyreactivity (PSR sort gate)” value is on record as “low polyreactivity”.

Turning to “QVQLVESGGGLVQAGGSLRLSCAASGIIFTYYAMGWYRQAPGKERELVAAISYRGGSTYADSVKGRFTISRDNAKNTVSLQMNSLKPEDTAVYYCAAQRWYVYGQKYHYGYWGQGTQVTVSS”, the “polyreactivity (PSR sort gate)” value is reported as “high polyreactivity”.

Consider “QVQLVESGGGLVQAGGSLRLSCAASGIIFVKNAMGWYRPAPGKERELVAAISDNADSTYYADSVKGRFTISRDNAKNTVYLQMNSLKPEDTAVYYCAADWVHRTWLFWYTKYDYWGQGTQVTVSS”, for which the “polyreactivity (PSR sort gate)” value is reported as “low polyreactivity”.

Regarding “QVQLVESGGGLVQAGGSLRLSCAASGIIFVKNAMGWYRQAPGKERELVAAISRSGARTYYADSVKGRFTISRDNEKNTVYLQMNSLKPEDTAVYYCNVYTRDRGYDYWGHGTQVTVSS”, the “polyreactivity (PSR sort gate)” value is reported as “high polyreactivity”.

For the sequence “QVQLVESGGGLVQAGGSLRLSCAASGIIFVKNAMGWYRQAPGKERELVASISGSGGRTYYADSEKGRFTISRDNAKNTVYLQMNILKPEDTAVYYCNTLLAPHARKARRHDYWGQGTQVTVSS”, the “polyreactivity (PSR sort gate)” value is reported as “low polyreactivity”.

For the sequence “QVQLVESGGGLVQAGGSLRLSCAASGIIFVKYAMGWYRQAPGKERQLVAAITSGGSTYYADSVKGRFTISRDNAMYTVYLQMNSLKPEDTAVYYCNADSWFLYFFTINGYWGQGTQVTVSS”, the “polyreactivity (PSR sort gate)” value is listed as “high polyreactivity”.

Consider “QVQLVESGGGLVQAGGSLRLSCAASGIIFVSYAMGWYRQAPGKERELVADITSGGRTYYADSVKGRFTISRDNAKNTVYLQMNSLKPEDTAVYYCAATYSYKGRWVWVYYWGQGTQVTVSS”, for which the “polyreactivity (PSR sort gate)” value is reported as “high polyreactivity”.

Turning to “QVQLVESGGGLVQAGGSLRLSCAASGIIFVSYDMGWYRQAPGKERELVAAINRGGRTYYADSVKGRFTISRDNAKNTDYLQMNSLKPEDTAVYYCAAQFHFRPFSWTYDYWGQGTQVTVSS”, the “polyreactivity (PSR sort gate)” value is listed as “high polyreactivity”.

For the sequence “QVQLVESGGGLVQAGGSLRLSCAASGIIFVTNDMGWYRQAPGKERELVATITWSGGSTYYADSVKGRFTISRDTAKNTVYLQMNSLKPEDTAVYYCAAEKDAHKEDYWGQGSQVTVSS”, the “polyreactivity (PSR sort gate)” value is “low polyreactivity”.

Regarding “QVQLVESGGGLVQAGGSLRLSCAASGIIFVVYAMGWYRQAPGKERELVAAISFRGGSTYYADSVKGRFTISRDNAKNTVYLQMNSLKPEDTAVYYCAARAFRHDGYDYWGQGTQVTVSS”, the “polyreactivity (PSR sort gate)” value is on record as “low polyreactivity”.

Turning to “QVQLVESGGGLVQAGGSLRLSCAASGIIFVYYAMGWYRQAPGKERELVAAISRSGGRTYYADSVKGRFTISRDNAKNTVYLQMNSLKPEDTAVYYCAAEVYKRYRYDYWGQGTQVTVSS”, the “polyreactivity (PSR sort gate)” value is listed as “high polyreactivity”.

Regarding “QVQLVESGGGLVQAGGSLRLSCAASGIIFVYYGKGWYRQAPGKERELVAAISWSGDDTYYADSVKGRFTISRDNAKNTVYLQMNSLKPEDTAVYYCAARPGYVHIDFDYWGQGSQVTVSS”, the “polyreactivity (PSR sort gate)” value is “low polyreactivity”.

With “QVQLVESGGGLVQAGGSLRLSCAASGIIFVYYVMGWYRQAPGKERELVASIDGSGGSTNYADSVKGRFTISRDNAKYTVYLQMNSLKPEDTAVYYCNADNILYWSTLDYWGQGTQVTVSS”, the “polyreactivity (PSR sort gate)” value is reported as “low polyreactivity”.

Turning to “QVQLVESGGGLVQAGGSLRLSCAASGIIFWDYAMGWYRQAPGKEREFVAAINTSGGTTTYADSVKGRFTISRDNAKNTVYLQMNSLKPEDTAVYNCAADPWGYYSYAYYYWGQGTQVTVSS”, the “polyreactivity (PSR sort gate)” value was “low polyreactivity”.

With “QVQLVESGGGLVQAGGSLRLSCAASGIIFWHYAMGRYIQAPGKERELVADISRRGGSTYYADSVKGRFTISRDNAKNTVYLQMNSLKPVDTAVYYCAARYHPGGYDSWGQGTQVTVSS”, the “polyreactivity (PSR sort gate)” value was “low polyreactivity”.

“QVQLVESGGGLVQAGGSLRLSCAASGIIFWLYAMGWYRQAPGKERELVAAINWSGSTTYYADSVKGRFTISRDNAKNTVYLQMNSLKPEDTAVYYCAASRVRAYYYTSSLRRYYYWGQGTQVTVSS”: the “polyreactivity (PSR sort gate)” value is “high polyreactivity”.

Take “QVQLVESGGGLVQAGGSLRLSCAASGIIFWLYTMGWYRQAPGKERELVAAITSGGSTYYADSVKGRFTISRDNAKNTVYIQMNSLKPEDTAVYYCAAVPRYRRGKYDYWGQGTQVTVSS”: the “polyreactivity (PSR sort gate)” value is “high polyreactivity”.

As for “QVQLVESGGGLVQAGGSLRLSCAASGIIFWRYAMGWYRQAPGKERELVASISWSGGSTSYADSVKGRFTISRDNAKNTVYLQMNSLKPEDTSVYYCAAVYYYRRRYYYWGQGTQVTVSS”, the “polyreactivity (PSR sort gate)” value is listed as “high polyreactivity”.

On to “QVQLVESGGGLVQAGGSLRLSCAASGIIFWSYTMGWYRQAPGKEREFVASLRKSGGSTYYADSVKGRFTISRDNSKNTVYLQMNSLKPEDTAVYYCAAVYRRYLGGGYDYWGQGTQVTVSS”, for which the “polyreactivity (PSR sort gate)” value is listed as “high polyreactivity”.

With “QVQLVESGGGLVQAGGSLRLSCAASGIIFWWYAMGGDRQAPGKERELVAAISGTGGSTYYADSVKGRFTISRDNAKNTVYLQMNTLKPEDTAVSYCPARGTSSSYYDYDYWGQGTQVTVSS”, the “polyreactivity (PSR sort gate)” value is reported as “low polyreactivity”.

As to “QVQLVESGGGLVQAGGSLRLSCAASGIIFWWYDMGWYRQAPGTERELVAAISTGSRTNYADSVKGRFTISRDNAKNTVYLQMNSLKPEDTAVYYCAAEWVGFSGYYGSGYEMDYWGQGTQVTVSS”, the “polyreactivity (PSR sort gate)” value is on record as “low polyreactivity”.

Consider “QVQLVESGGGLVQAGGSLRLSCAASGIIFWYNAMGWYRQAPGKERELVAAITYSGGSTYYADSVKGRFTISRDNAKNTVYLQMNSLKPEDTAVYYCAADGYSRYASGGYEYWGQGTQVTVSS”, for which the “polyreactivity (PSR sort gate)” value is reported as “low polyreactivity”.

On to “QVQLVESGGGLVQAGGSLRLSCAASGIIFWYYAMGWYRQAPGKERELVAAISQSGGSTYYADSVKGRFTISRDNAKNTVYLQMNSMKPEDTAVDYCAAKPFYWSLEYDYRGQGTQVTVSS”, for which the “polyreactivity (PSR sort gate)” value is reported as “high polyreactivity”.

“QVQLVESGGGLVQAGGSLRLSCAASGIIFWYYAMGWYRQAPGKERELVAAISSGGGTNYADSVKGRFTISRDNAKNTVYLQMNSLKPEDTAVYYCNADDNPVWEYDYWGQGTQVTVSS”: the “polyreactivity (PSR sort gate)” value is reported as “low polyreactivity”.

Regarding “QVQLVESGGGLVQAGGSLRLSCAASGIIFYAYAMGWYRQAPGKERELVAAITFSAVSTYYADSVKGRFTISRDNAKNTVYLQMNSLKPEDTAVYYCAVDREWPGYYYAISKMYYWGQGTQVTVSS”, the “polyreactivity (PSR sort gate)” value is “low polyreactivity”.

Turning to “QVQLVESGGGLVQAGGSLRLSCAASGIIFYDYAMGWYRQAPGKERELVAAISRSGGSTYYADSVKGRFTISRDNAKNTVYLQMNSLKPEDTAVYYCNADEVVWGYNYWGQGTQVTVSS”, the “polyreactivity (PSR sort gate)” value was “low polyreactivity”.

Regarding “QVQLVESGGGLVQAGGSLRLSCAASGIIFYDYAMGWYRQAPGKERELVAAISSSGGRTYYADSVKGRFTISRDNAKNTVYLQMNSLNPEDTAFYYCATVSSIYRVRSTSIRYNYWGQGTQVTVSS”, the “polyreactivity (PSR sort gate)” value was “high polyreactivity”.

With “QVQLVESGGGLVQAGGSLRLSCAASGIIFYENAMGWYRQAPGKERELVADITQSGGSTYYADSVKGRFTISRDNAKNTVYLQMNSLKPEDTAVYYCARDGDLWYYKGYGTLFDYWGQGTQVTVSS”, the “polyreactivity (PSR sort gate)” value is listed as “low polyreactivity”.

With “QVQLVESGGGLVQAGGSLRLSCAASGIIFYFYAMGWYRQAPGKERELVAAISRGGSTKYADSVKGRFTISRDNAKNTVYLQMNSLKPEDTAVYYCAATRRRPSEYYYWGPGTQVTVSS”, the “polyreactivity (PSR sort gate)” value is given as “high polyreactivity”.

As for “QVQLVESGGGLVQAGGSLRLSCAASGIIFYFYAMGWYRQAPGKERELVAAITSGGSTNYADSVKGRFTISRDNAKNTVYLQMNSLKPEDTAVYYCAADRDYYFFRYDYWGQGTQVTVSS”, the “polyreactivity (PSR sort gate)” value is recorded as “low polyreactivity”.

Take “QVQLVESGGGLVQAGGSLRLSCAASGIIFYGYAMGWYRQAPAKERELVAAITYSGGSTYYADSVKGRFTISRDNAKNTVYLQMNSLKPEDTAVYYCDAYDAYSPYLALYDYWVQGTQVTVSS”: the “polyreactivity (PSR sort gate)” value is on record as “low polyreactivity”.

In the case of “QVQLVESGGGLVQAGGSLRLSCAASGIIFYGYAMGWYRQAPGKERELVATISTGGRTNYADSVKGRFTISRDNAKNTVYLQMNSLKPEDTAVYYCAARSFWTYRSGGPSDYYYWGQGTQVTVSS”, the “polyreactivity (PSR sort gate)” value was “high polyreactivity”.

Regarding “QVQLVESGGGLVQAGGSLRLSCAASGIIFYGYVMGWYRQAPGKERELVAAISKSGGSTYYADSVKGRFTISRDIAKNTVYLQMNSLIPEDTAVYYCAAERKSFYRYNYWGQGTQVSVSS”, the “polyreactivity (PSR sort gate)” value is listed as “high polyreactivity”.

“QVQLVESGGGLVQAGGSLRLSCAASGIIFYGYVMGWYRQAPGKERELVAAISKSGGSTYYADSVKGRFTISRDNAKNTVYLQMNSLKPEETAVYYCAAERKSFYRYNYWGQGTQVTVSS”: the “polyreactivity (PSR sort gate)” value is given as “high polyreactivity”.

In the case of “QVQLVESGGGLVQAGGSLRLSCAASGIIFYKYAMGWYRQAPGKERELVAAINWSGGSTYYADSVKGRFTISRDNAKNTVYLQMNSLKPEDTAVYYCAADRTDFEYYYWGQGTQVTVSS”, the “polyreactivity (PSR sort gate)” value is “low polyreactivity”.

Take “QVQLVESGGGLVQAGGSLRLSCAASGIIFYKYAMGWYRQAPGKERELVAAISYSGTSTYYADSVKGRFTISRDNAKNTVYLQINSLKPEDTAVYYCAAVTYVPRSTNGISLYDYWGQGTQVTVSS”: the “polyreactivity (PSR sort gate)” value is recorded as “high polyreactivity”.

For “QVQLVESGGGLVQAGGSLRLSCAASGIIFYKYAMGWYRQAPGKERELVAAITGRGGSTYYADSVKGRFTISRDNAKNTVYLRMNSLKPEDTAVYFCAASQRSGHPSYDYWGQGTQVTVSS”, the “polyreactivity (PSR sort gate)” value is “high polyreactivity”.
